Laboratory results taken from the supplement of paper PMC12042874.
± gives the uncertainty stated by the source.

Test: amyloid nucleation score (Sup35N fusion, yeast selection) (log enrichment); library NNK3; higher = more nucleation; inactive = no reads after selection
In short: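 In psi-negative yeast, Sup35N fusions carrying peptides of 20 random codons were induced with 100 μM copper sulfate for 24 hours. The cells then grew 7 days at 30°C on medium lacking adenine and uracil, and plasmid inserts from input and output were Illumina-sequenced, excluding sequences with under 100 input reads. Nucleation score is the DiMSum log enrichment of output over input reads, centred on the mode score of non-aggregating sequences.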

Q: With KQRVASTTTVAPHPKNKD as the substance, how does the amyloid nucleation score read?
A: inactive

Q: For SIGCIHARCAYEEFDMVVIC, which amyloid nucleation score is on record?
A: inactive

Q: For NLMGRCTEFRKYI, which amyloid nucleation score is on record?
A: inactive

Q: For YVKPDDDAQVKVGWGQFSVG, which amyloid nucleation score is on record?
A: inactive

Q: With LYLYYSSTVSLVKYSNEVNC as the substance, how does the amyloid nucleation score read?
A: inactive

Q: For LYSPYLGCDNGATQFWSGTT, which amyloid nucleation score is on record?
A: 0.226 ± 0.88

Q: With YIARCVVTSLVLNKTCMRIY as the substance, how does the amyloid nucleation score read?
A: inactive

Q: With PFIGVSMLSMG as the substance, how does the amyloid nucleation score read?
A: -0.47 ± 0.87

Q: For VTLQLPDCFGRACIGLAYIA, which amyloid nucleation score is on record?
A: inactive

Q: Which amyloid nucleation score does the source give for ISMSVYFFTIISSQFMFPIR here?
A: inactive

Q: Which amyloid nucleation score does the source give for SPGYINGNGSSVRSVFNL here?
A: inactive

Q: With FANKTRYSPWSCNPVFWYDR as the substance, how does the amyloid nucleation score read?
A: inactive

Q: Which amyloid nucleation score does the source give for KDTRIQLVNNFICGDSLE here?
A: inactive

Q: For MSIVIYARLTWNYDSVFSFG, which amyloid nucleation score is on record?
A: inactive

Q: With CDAHSLSMLRVQIK as the substance, how does the amyloid nucleation score read?
A: inactive

Q: With ECLKPCSSNCTNRPTARPQC as the substance, how does the amyloid nucleation score read?
A: inactive

Q: Which amyloid nucleation score does the source give for NNTLV here?
A: inactive

Q: For YWLGA, which amyloid nucleation score is on record?
A: inactive

Q: Which amyloid nucleation score does the source give for SYVICGLYIFGCIFRSFTLP here?
A: inactive

Q: With KIMSYHIHVMFLLDYMKDRS as the substance, how does the amyloid nucleation score read?
A: 1.28 ± 0.15

Q: With FSSRVRTMPLVGVM as the substance, how does the amyloid nucleation score read?
A: inactive

Q: Which amyloid nucleation score does the source give for SLVAYLIEGIFNLWEALMDR here?
A: inactive

Q: For RCFGKIC, which amyloid nucleation score is on record?
A: inactive

Q: For CSFIGYHGFVCLSVDIVLGC, which amyloid nucleation score is on record?
A: 1.51 ± 0.12

Q: For IAPYGRGWKDYLIDSEHVRT, which amyloid nucleation score is on record?
A: inactive

Q: Which amyloid nucleation score does the source give for FCTFSLRHYVTKNGPVCPTK here?
A: inactive

Q: With LCMQFNLVWRYDRRETINSE as the substance, how does the amyloid nucleation score read?
A: 1.16 ± 0.11

Q: With VYVSYGTFWMSKVWWCDKPG as the substance, how does the amyloid nucleation score read?
A: inactive

Q: Which amyloid nucleation score does the source give for FLRWFWRD here?
A: 0.785 ± 0.18

Q: With TCMYLRDHR as the substance, how does the amyloid nucleation score read?
A: -0.337 ± 0.98

Q: For SPDDVDYFFLVRNDRMCAYV, which amyloid nucleation score is on record?
A: inactive

Q: Which amyloid nucleation score does the source give for STYAPWSMHHFLDLYMSNRS here?
A: inactive

Q: Which amyloid nucleation score does the source give for KERCLVSHCTTLCALFLRVI here?
A: inactive

Q: Which amyloid nucleation score does the source give for LKVVLYGVHQSCEYMRSRLS here?
A: inactive

Q: With RTGSHEMLIICFCVTSVL as the substance, how does the amyloid nucleation score read?
A: inactive

Q: With INYSWFDLSMALTK as the substance, how does the amyloid nucleation score read?
A: inactive

Q: Which amyloid nucleation score does the source give for ASRIDINRIWFVFWIQAIKS here?
A: inactive

Q: With VRAPTYVGAWSPGEFNYRSD as the substance, how does the amyloid nucleation score read?
A: inactive

Q: Which amyloid nucleation score does the source give for EGEVCSVCY here?
A: inactive

Q: For CISKCLVNNV, which amyloid nucleation score is on record?
A: inactive

Q: With GFGFP as the substance, how does the amyloid nucleation score read?
A: inactive

Q: With SGSVNIHSWCGFNSWT as the substance, how does the amyloid nucleation score read?
A: inactive

Q: Which amyloid nucleation score does the source give for NSLFSNCARLYGNRGTLGLS here?
A: inactive

Q: With YLNISILFNCVWDKVFFRYH as the substance, how does the amyloid nucleation score read?
A: inactive

Q: For KGCVRSGQIWLRCIWSQYP, which amyloid nucleation score is on record?
A: inactive

Q: For FVSILLYYMPVNCLNRKTIN, which amyloid nucleation score is on record?
A: inactive

Q: With SDYHWYVRTSCGSFSYGHVN as the substance, how does the amyloid nucleation score read?
A: inactive

Q: For SVYDNYSLGNRYWERTFWLS, which amyloid nucleation score is on record?
A: inactive

Q: For FLLFFILPSVRDLASHKSRG, which amyloid nucleation score is on record?
A: 0.099 ± 0.19

Q: Which amyloid nucleation score does the source give for SCRIMSRYGAQIWCDPTYQA here?
A: inactive

Q: Which amyloid nucleation score does the source give for YTMVWFLSSYSNY here?
A: inactive

Q: Which amyloid nucleation score does the source give for MGGVCMSMS here?
A: inactive

Q: For CRTHSDVVVSTHFMNAWLSI, which amyloid nucleation score is on record?
A: inactive

Q: For ILKVLFKF, which amyloid nucleation score is on record?
A: 1.13 ± 0.1

Q: With FWHILLEVRLAVWSQMRDMG as the substance, how does the amyloid nucleation score read?
A: inactive

Q: With WSYIVLTVLTWVACCTFWFV as the substance, how does the amyloid nucleation score read?
A: -0.436 ± 0.49

Q: With SRGVRIDKMVWNVIGFCHGW as the substance, how does the amyloid nucleation score read?
A: 2.8 ± 0.08

Q: Which amyloid nucleation score does the source give for RFIVS here?
A: inactive

Q: For GLRLFYAHRYAC, which amyloid nucleation score is on record?
A: inactive

Q: Which amyloid nucleation score does the source give for DGGCSKIVRQTLWLNPLGNS here?
A: inactive

Q: Which amyloid nucleation score does the source give for LFSSVC here?
A: inactive

Q: Which amyloid nucleation score does the source give for TWSRRGSGAPACVVVTWVPA here?
A: inactive

Q: For KERIQCYMRLPRFIN, which amyloid nucleation score is on record?
A: inactive

Q: Which amyloid nucleation score does the source give for ISRVCSNFLGLDVTFLMLLT here?
A: 1.42 ± 0.14

Q: With DRYCLWVRCLVDAFMRPVVG as the substance, how does the amyloid nucleation score read?
A: inactive
